Patent publication US20060269550A1 (published 2006)
Where no end group is shown, it is not given here. The star is where a group is joined. Octanoyl = CCCCCCCC(=O)*

B3: anti-hGhrelin Fab 2291 (Fab, V domains shown)
VH: EIQLQQSGAELMKPGASVKLSCKATGYTFTGYWIEWAKQRPGHGLEWIGEILPGSGSTNYNEKFKGKATFTADTSSNTANMQLSSLTTEDSAIYYCARYPQFRLRRERIAYWGQGTLVTVSV
VL: DLVLTQSPASLAVSLGQRATISCRASKSVSTSGYSYMHWYQQKPGQPPKLLIYLASNLEPGVPARFSGSGSGTDFTLNIHPVEEEDAATYYCQHSRELPYTFGAGTKLELKR
notes: Mouse Fab, kappa light chain
B5: Ghrelin (1-8), the first eight amino acids of human ghrelin acylated, via an ester linkage, with an octanoyl group on the serine at position 3 (peptide)
peptide: GSS(Octanoyl)FLSPE
notes: also called human ghrelin amino acids 1-8 acylated with octanoic acid

What was measured:
[1] = molecular target: T1, full-length human ghrelin acylated with an octanoyl group on the serine at position 3 (human, n-octanoyl group on Ser 3); assay: cell-based or functional assay
[2] = molecular target: T2, rat ghrelin (full length, acylated) (rat, UniProt Q9QYH7 24-51, acylated (group and position not restated for the rat peptide)); assay: SPR, BIAcore 2000, 25 C; Fab captured by goat anti-mouse kappa, rat ghrelin as analyte; koff/kon, average of three
T2 construct: mature; the assay used the full-length ghrelin peptide
T2 peptide (looked up): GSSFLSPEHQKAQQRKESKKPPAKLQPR
Experimental: (§1) The BIAcore® utilizes the optical properties of surface plasmon resonance to detect alterations in protein concentration of interacting molecules within a dextran biosensor matrix. Except where noted, all reagents and materials were purchased from BIAcore® AB (Upsala, Sweden). All measurements were performed at 25° C. Samples containing rat or human ghrelin (full length, acylated) were dissolved in HBS-EP buffer (150 mM sodium chloride, 3 mM EDTA, 0.005% (w/v) surfactant P-20, and 10 mM HEPES, pH 7.4). A capture antibody, goat anti-mouse Kappa (Southern Biotechnology, Inc), was immobilized onto flow cells using amine-coupling chemistry. Flow cells (1-4) were activated for 7 minutes with a 1:1 mixture of 0.1 M N-hydroxysuccinimide and 0.1 M 3-(N,N-dimethylamino)propyl-N-ethylcarbodiimide at a flow rate of 10 μl/min. Goat anti-mouse Kappa (30 μg/mL in 10 mM sodium acetate, pH 4.5) was manually injected over all 4 flow cells at a flow rate of 10 μL/min. The surface density was monitored and additional goat anti-mouse Kappa was injected if needed to individual cell until all flow cells reach a surface density of 4500-5000 response units (RU). Surfaces were blocked with a 7 minute injection of 1 M ethanolamine-HCl, pH 8.5(10 μL/min). To ensure complete removal of any noncovalently bound goat anti-mouse Kappa, 15 μL of 10 mM glycine, pH 1.5 was injected twice. Running buffer used for kinetic experiments contained 10 mM HEPES, pH 7.4, 150 mM NaCl, 0.005% P20.
(§2) Collection of kinetic binding data was performed at maximum flow rate (100 μL/min) and a low surface density to minimize mass transport effects.

[3] = molecular target: T1, full-length human ghrelin acylated with …; assay: SPR, BIAcore 2000, 25 C; Fab captured by goat anti-mouse kappa, ghrelin as analyte; koff/kon, average of three
Experimental: as §1, §2

[4] = molecular target: B5; assay: inferred by the filing from inhibition of the analog in the FLPR calcium assay
[5] = molecular target: B3; assay: competitive ELISA; competitor at 5 µg/ml preincubated with Fab 2291 0.1 µg/ml, OD of Fab bound to BSA-hGhrelin wells
Experimental: (§3) Each well of a 96-well plate was coated with 60 μl BSA-hGhrelin antigen (i.e., BSA conjugated, full-length, acylated human ghrelin, 2 μg/ml in carbonate buffer, pH 9.6). The plate was incubated at 4° C. overnight. The wells were aspirated and washed twice with washing buffer (20 mM Tris-Cl, pH 7.4, 0.15 M NaCl, 0. 1% Tween 20). Compounds (i.e., human ghrelin or ghrelin analogs) were diluted into antibody solution. The antibody solution was mouse-anti-human ghrelin Fab. The ghrelin competitor concentration was varied as listed in Tables 2 and 3 below, but the Fab-concentration was kept constant at 0.1 μg/ml in blocking solution (10 mg/ml BSA in wash buffer). After a 1 hour incubation at room temperature, 50 μl of compound-antibody solution was added to BSA-hGhrelin coated wells in triplicate. The plates were incubated for 1 hour at room temperature. The wells were then washed three times with washing buffer.
(§4) Peroxidase-conjugated secondary antibody (50 μl goat anti-mouse kappa HRP (Southern Biotech), diluted 1:2000 in blocking buffer) was added to each well and incubated for 1 hour at room temperature. The wells were then washed 4 times with washing buffer. Fifty microliters of chromogenic substrate (i.e., OPD substrate) was added to each well and allowed to develop at room temperature for 10 minutes. […] The absorbance of the wells was read at 490 nm. […]

[6] = molecular target: B3; assay: competitive ELISA; competitor at 1 µg/ml preincubated with Fab 2291 0.1 µg/ml, OD of Fab bound to BSA-hGhrelin wells
Experimental: as §3, §4

[7] = molecular target: B3; assay: competitive ELISA; competitor at 0.2 µg/ml preincubated with Fab 2291 0.1 µg/ml, OD of Fab bound to BSA-hGhrelin wells
Experimental: as §3, §4

T1 sequence (peptide, as listed by the source): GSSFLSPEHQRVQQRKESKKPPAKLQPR

B1: anti-hGhrelin Fab 2891 (Fab, V domains shown)
VH: EIQLQQSGAELMKPGASVKLSCKATGYTFTGYWIEWVKQRPGHGLEWIGEILPGSGSTNYNEKFKGKATFTADTSSNTANMQLSSLTTEDSAIYYCARYPQFRLRRERIAYWGQGTLVTVSV
VL: DLVLTQSPASLAVSLGQRATISCRASKSVSTSGYSYMHWYQQKPGQPPKLLIYLASNLESGVPARFSGSGSGTDFTLNIHPVEEEDAATYYCQHSRELPYTFGAGTKLELKR
notes: Mouse Fab, kappa light chain
IC50 (nM), FLPR calcium assay on AV12 cells expressing human GHS-R1a [1]: 0.9 nM | Kd [2]: 1.16 nM | Kd [3]: 1.01 nM | binding result [4]: binds

B2: anti-hGhrelin Fab 2211 (Fab, V domains shown)
VH: EIQLQQSGAELMRPGASVKLSCKATGYTFTGYWIEWVKQRPGHGLEWIGEILPGSGSTNYNEKFKGKATFTADTSSNTANMQLSSLTTEDSAIYYCARYPQFGLRRERIAYWGQGTLVTVSV
VL: DLVLTQSPASLAVSLGQRATISCRASKSVSTSGYSYMHWYQQKPGQPPKLLIYLASNLESGVPARFSGSGSGTDFTLNIHPVEEEDAATYYCQHSRELPYTFGAGTKLELKR
notes: Mouse Fab, kappa light chain
IC50 (nM), FLPR calcium assay on AV12 cells expressing human GHS-R1a [1]: 1.9 nM | Kd [2]: 5.42 nM | Kd [3]: 3.38 nM | binding result [4]: binds

B3
IC50 (nM), FLPR calcium assay on AV12 cells expressing human GHS-R1a [1]: 0.8 nM | Kd [2]: 1.68 nM | Kd [3]: 1.08 nM | binding result [4]: binds

B4: anti-hGhrelin Fab 1111 (Fab, V domains shown)
VH: EIQLQQSGAELMKPGASVKLSCKATGYIFTGYWIEWVKQRPGHGLEWIGEILPGSGSTNYNEKFKGKATFTADTSSNTANMQLSSLTTEDSAIYYCARYPQFRLRRERIAYWGQGTLVTVSV
VL: DLVLTQSPASLAVSLGQRATISCRASKSVSTSGYSYMHWYQQKPGQPPKLLIYLASNLESGVPARFSGSGSGTDFTLNIHPVEEEDAATYYCQHSRELPYTFGAGTKLELKR
notes: Mouse Fab from an Omniclonal library (immunised C57Bl/6 mice); kappa light chain (detected or captured with goat anti-mouse kappa)
IC50 (nM), FLPR calcium assay on AV12 cells expressing human GHS-R1a [1]: 1.1 nM | Kd [2]: 1.14 nM | Kd [3]: 1.04 nM | binding result [4]: binds

B5
Ave. OD [5]: 0.065 OD | Ave. OD [6]: 0.127 OD | Ave. OD [7]: 0.399 OD
